Test results from patent US20090048117A1, “MODULATION OF IMMUNE SYSTEM FUNCTION BY MODULATION OF POLYPEPTIDE ARGININE METHYLTRANSFERASES” (President and Fellows of Harvard College, priority 2003, published 2009).

Tests used:
Type in all cases: cell-based
[1] = tested on: 3X NFAT-CAT reporter; test: 3X NFAT-CAT reporter assay in HepG2 cells
From the text: FIG. 8 depicts CAT assay results (left) and a bar graph quantitating the relative fold induction of CAT activity (right) in HepG2 cells transfected with a 3X NFAT-CAT reporter gene construct (containing three NFAT binding sites) and either a control expression plasmid or an NFAT family expression plasmid (NFATp, NFATc, NFAT3 or NFAT4), alone (−) or in combination with a NIP45 expression plasmid (^+).
To test for a functional role of NIP45 in NFAT-driven transcription, NIP45 was expressed at high levels in HepG2 cells. […] HepG2 cells were transfected with a 3X NFAT-CAT reporter from the IL-2 gene (Venkataraman, L. et al. (1994) Immunity 1:189-196) and control or expression plasmids for a NIP45 and NFAT family members (NFATp, NFATc, NFAT3, NFAT4). HepG2 cells were transfected by the DEAE-Dextran method as described in Hoey, T. et al. (1995) supra, and CAT assays were performed according to standard methodologies. One representative assay for each combination is shown adjacent to a bar graph representing relative CAT activity for each group. Fold induction was calculated by normalizing the CAT activity of cells transfected with the CAT reporter and each parental expression vector to one. Values represent the relative level of CAT expression above this control transfection. All transfections were performed at least three times with one representative autoradiograph shown.

[2] = tested on: IL-4 promoter; test: IL-4-CAT reporter assay in HepG2 cells; conditions: NIP45 together with NFATp and c-Maf
Experimental: FIG. 9 depicts CAT assay results (left) and a bar graph quantitating the relative fold induction of CAT activity (right) in HepG2 cells transfected with an IL-4-CAT reporter gene, construct (extending to −732 bp of the IL-4 promoter) and combinations of NFATp, NIP45 and/or c-Maf expression constructs, as indicated.
Although a reporter construct containing multiple copies of the NFAT binding site provides a sensitive method for measuring transactivation by NFAT and NIP45, it was determined if NIP45 was functional in the context of a native NFAT-dependent promoter. IL-4 expression is highly tissue specific and restricted to the Th2 subset of T cells and to mast cells. […] Thus, the IL-4 promoter is not active in the HepG2 cell line but can be activated by the introduction of NFATp and c-maf. In cotransfection experiments carried out as described above, HepG2 cells were transfected with an IL-4-CAT reporter construct (extending to −732 bp of the IL-4 promoter) and expression vectors or controls for NIP45, NFATp and c-Maf. The controls for NIP45 was a frame shift mutant at amino acid 13. Controls for NFATp and c-Maf were the empty expression vectors pREP4 and pMEX respectively (Ho, I. C. et al. (1996) Cell 85:973-983). The results of these experiments are shown in FIG. 9 (representative CAT assays and bar graphs are depicted as in FIG. 8).

[3] = tested on: M12 B lymphoma cells; test: Endogenous IL-4 production by transfected M12 B lymphoma cells (ELISA); conditions: M12 cells cotransfected with NFATp and c-Maf; supernatants at 72 hours
Experimental: FIG. 10 is a bar graph depicting the level of IL-4 (in pg/ml) in the supernatants of M12 B lymphoma cells transiently cotransfected with expression plasmids for NFATp, c-Maf and a pCI vector control (top bar) or expression plasmids for NFATp, c-Maf and NIP45 (bottom bar).
M12 cells were transiently transfected by electroporation as previously described (Ho, I. C. et al. (1996) Cell 85:973-983) by incubating 3×10^6 cells in 0.4 ml of PBS with 5 μg of each plasmid for 10 minutes at room temperature prior to electroporation at 975 μF, 280 V. Levels of IL-4 in the supernatants harvested 72 hours later were measured by a commercially available IL-4 ELISA (Pharmingen), performed according to the manufacturer's instructions except with modification as described (Ho, I. C. et al. (1996) supra). Four independent sets of transient transfections were done and assayed for secretion of IL-4 into the culture supernatant. For each set of transfections, inclusion of NIP45 led to a dramatic increase in IL-4 production.

B1: NIP45: 45 Kd NFAT interacting protein of 412 amino acids (SEQ ID NO: 2), expressed from a transfected expression plasmid (protein, listed as Mus musculus)
chain: MAEPLRGRGPRSRGGRGARRARGARGRCPRARQSPARLIPDTVLVDLVSDSDEEVLEVADPVEVPVARLPAPAKPEQDSDSDSEGAAEGPAGAPRTLVRRRRRRLLDPGEAPVVPVYSGKVQSSLNLIPDNSSLLKLCPSEPEDEADLTNSGSSPSEDDALPSGSPWRKKLRKKCEKEEKKMEEFPDQDISPLPQPSSRNKSRKHTEALQKLREVNKRLQDLRSCLSPKQHQSPALQSTDDEVVLVEGPVLPQSSRLFTLKIRCRADLVRLPVRMSEPLQNVVDHMANHLGVSPNRILLLFGESELSPTATPSTLKLGVADIIDCVVLASSSEATETSQELRLRVQGKEKHQMLEISLSPDSPLKVLMSHYEEAMGLSGHKLSFFFDGTKLSGKELPADLGLESGDLIEVWG
increase in CAT activity over vector alone ([1]; NIP45 cotransfected with NFATp): 25-30 fold
increase in CAT activity relative to transfection with NFATp alone ([1]; NIP45 cotransfected with NFATp): 4-5 fold
CAT expression from 3X NFAT-CAT reporter ([1]; NIP45 transfected alone): did not lead to a significant increase
increase in activity of the IL-4 promoter relative to NFATp and c-Maf alone [2]: 9 fold
endogenous IL-4 production relative to cells that did not receive NIP45 [3]: 50-200 fold
